Measurements reported in the supplement of paper PMC9233669.
This sample holds only a part of the variants without activity.

Tests used:
[1] = system: biotinyl-Met-oxazolone; assay: self-aminoacylation, catalytic enhancement (BMO) (fold over background); higher = more active; k-Seq, kA / k0A0; sequences stand for … in GGGAAUGGAUCCACAUCUACGAAUUC…UUCACUGCAGACUUGACGAAGCUG
Outline: (§1)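 Each biotinyl-aminoacyl-oxazolone, at 2–1250 μM, was incubated with mutagenized RNA pools (0.43 μM) carrying a 21-nt variable region. The 50 μL reactions contained HEPES/NaCl/KCl/MgCl2/CaCl2 buffer with 5% acetonitrile at pH 6.9–7.0 and ran for 90 minutes at room temperature. After streptavidin capture, RNA was measured by qPCR in triplicate and by Illumina sequencing, and catalytic enhancement was calculated as median kA over the uncatalyzed rate from a pseudo-first-order fit of per-sequence fraction reacted.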

[2] = system: biotinyl-Phe-oxazolone; assay: self-aminoacylation, catalytic enhancement (BFO) (fold over background); higher = more active; k-Seq, kA / k0A0; sequences stand for … in GGGAAUGGAUCCACAUCUACGAAUUC…UUCACUGCAGACUUGACGAAGCUG
Outline: as §1

[3] = system: biotinyl-Trp-oxazolone; assay: self-aminoacylation, catalytic enhancement (BWO) (fold over background); higher = more active; k-Seq, kA / k0A0; sequences stand for … in GGGAAUGGAUCCACAUCUACGAAUUC…UUCACUGCAGACUUGACGAAGCUG
Outline: as §1

[4] = system: biotinyl-Leu-oxazolone; assay: self-aminoacylation, catalytic enhancement (BLO) (fold over background); higher = more active; k-Seq, kA / k0A0; sequences stand for … in GGGAAUGGAUCCACAUCUACGAAUUC…UUCACUGCAGACUUGACGAAGCUG
Outline: as §1

[5] = system: biotinyl-Ile-oxazolone; assay: self-aminoacylation, catalytic enhancement (BIO) (fold over background); higher = more active; k-Seq, kA / k0A0; sequences stand for … in GGGAAUGGAUCCACAUCUACGAAUUC…UUCACUGCAGACUUGACGAAGCUG
Outline: as §1

[6] = system: biotinyl-Val-oxazolone; assay: self-aminoacylation, catalytic enhancement (BVO) (fold over background); higher = more active; k-Seq, kA / k0A0; sequences stand for … in GGGAAUGGAUCCACAUCUACGAAUUC…UUCACUGCAGACUUGACGAAGCUG
Outline: as §1

| Sequence | self-aminoacylation [1] | self-aminoacylation [2] | self-aminoacylation [3] | self-aminoacylation [4] | self-aminoacylation [5] | self-aminoacylation [6] |
| --- | --- | --- | --- | --- | --- | --- |
| CCUCACUUCAAGCAAUCAGUC [Fam1B.1 aminoacylation ribozyme variant] | 0.83 | 21.2 | 6.56 | 1.01 | 0.781 | 0.921 |
| CCUCACUUCAAGCAAUCCGUC [Fam1B.1 aminoacylation ribozyme variant] | 0.613 | 1.94 | 0.756 | 0.736 | 0.935 | 0.873 |
| CCUCACUUCAAGCAAUCGUUC [Fam1B.1 aminoacylation ribozyme variant] | 0.473 | 1.29 | 0.754 | 0.604 | 0.664 | 0.637 |
| CCUCACUUCAAGCAUUCGGUC [Fam1B.1 aminoacylation ribozyme variant] | 1.14 | 1.36 | 1.37 | 1.16 | 1.3 | 1.43 |
| CCUCACUUCAAGCGAUCGGUC [Fam1B.1 aminoacylation ribozyme variant] | 1.27 | 2.38 | 2.72 | 1.53 | 1.19 | 1.29 |
| CCUCACUUCAAGUAAUCGGUC [Fam1B.1 aminoacylation ribozyme variant] | 0.949 | 14.2 | 8.32 | 1.17 | 1 | 0.821 |
| CGACACUGCAAGCAAUCGGUC [Fam1B.1 aminoacylation ribozyme variant] | 1.26 | 1.4 | 1.82 | 1.37 | 1.52 | 1.47 |
| CGACACUUCAAGCAAGCGGUC [Fam1B.1 aminoacylation ribozyme variant] | 1.27 | 0.837 | 1.21 | 1.23 | 1.09 | 0.939 |
| CGACACUUCAAGCAAUCAGUC [Fam1B.1 aminoacylation ribozyme variant] | 0.774 | 13.2 | 4.25 | 0.903 | 0.815 | 0.822 |
| CGACACUUCAAGCAAUCGCUC [Fam1B.1 aminoacylation ribozyme variant] | 1.64 | 2.06 | 2.2 | 2.26 | 2.1 | 1.96 |
| CGACACUUCAAGCCAUCGGUC [Fam1B.1 aminoacylation ribozyme variant] | 1.17 | 0.589 | 1.9 | 1.17 | 1.3 | 1.59 |
| CGACAGUUCAAGCAAUCGGUC [Fam1B.1 aminoacylation ribozyme variant] | 1.19 | 2.42 | 2.43 | 1.45 | 1.48 | 1.53 |
| CGACGCUUCAAGCAAUCGGUC [Fam1B.1 aminoacylation ribozyme variant] | 1.07 | 22.7 | 16.7 | 1.58 | 1.2 | 1.35 |
| CGACUUCAAACACUCGGUCUG [Fam1A.1 aminoacylation ribozyme variant] | 1.61 | 2.7 | 2.31 | 1.39 | 1.33 | 1.52 |
| CGACUUCAACCAAUCGGUCUG [Fam1A.1 aminoacylation ribozyme variant] | 1.35 | 64.2 | 31.6 | 2.26 | 1.56 | 1.42 |
| CGCCUUCAAACAAUCGGUCUG [Fam1A.1 aminoacylation ribozyme variant] | 1.94 | 146 | 55.5 | 3.13 | 1.59 | 1.8 |
| CGGCUUCAAACAAUCGGUCUG [Fam1A.1 aminoacylation ribozyme variant] | 1.62 | 106 | 45.1 | 2.46 | 1.41 | 1.49 |
| CUAACCCUGGUCAUCGAGUGA [Fam2.1 aminoacylation ribozyme variant] | 8.98 | 11.8 | 9.47 | 8.32 | 4.07 | 4.44 |
| CUAACUCAAACAAUCGGUCUG [Fam1A.1 aminoacylation ribozyme variant] | 0.648 | 3.32 | 1.24 | 0.716 | 0.761 | 0.742 |
| CUAAUUCAAAAAAUCGGUCUG [Fam1A.1 aminoacylation ribozyme variant] | 0.636 | 1.9 | 1.18 | 0.727 | 0.751 | 0.668 |
| CUAAUUCAAACAACCGGUCUG [Fam1A.1 aminoacylation ribozyme variant] | 0.958 | 0.916 | 0.69 | 0.724 | 0.947 | 0.754 |
| CUAAUUCAAACAAGCGGUCUG [Fam1A.1 aminoacylation ribozyme variant] | 1.1 | 0.798 | 0.632 | 0.847 | 0.874 | 0.972 |
| CUAAUUCAAACAAUAGGUCUG [Fam1A.1 aminoacylation ribozyme variant] | 0.704 | 1.11 | 0.666 | 0.706 | 0.773 | 0.77 |
| CUAAUUCAAACAAUCUGUCUG [Fam1A.1 aminoacylation ribozyme variant] | 0.64 | 1.1 | 0.748 | 0.525 | 0.784 | 0.665 |
| CUAAUUCAAACAUUCGGUCUG [Fam1A.1 aminoacylation ribozyme variant] | 1.03 | 0.983 | 1.02 | 1.02 | 1.05 | 0.979 |
| CUAAUUCAAACGAUCGGUCUG [Fam1A.1 aminoacylation ribozyme variant] | 0.696 | 0.8 | 0.656 | 0.72 | 0.689 | 0.648 |

| Sequence | self-aminoacylation [1] | self-aminoacylation [2] | self-aminoacylation [3] | self-aminoacylation [4] | self-aminoacylation [5] | self-aminoacylation [6] |
| --- | --- | --- | --- | --- | --- | --- |
| CUAAUUUAAACAAUCGGUCUG [Fam1A.1 aminoacylation ribozyme variant] | 0.866 | 0.662 | 0.6 | 0.791 | 0.9 | 0.872 |
| CUACACUCCAAGCAAUCGGUC [Fam1B.1 aminoacylation ribozyme variant] | 0.76 | 2.74 | 1.22 | 0.747 | 0.949 | 0.934 |
| CUACACUUCAAGCAAGCGGUC [Fam1B.1 aminoacylation ribozyme variant] | 0.62 | 0.583 | 0.541 | 0.772 | 0.719 | 0.637 |
| CUACACUUCACGCAAUCGGUC [Fam1B.1 aminoacylation ribozyme variant] | 0.777 | 0.68 | 0.895 | 0.758 | 0.801 | 0.888 |
| CUACACUUGAAGCAAUCGGUC [Fam1B.1 aminoacylation ribozyme variant] | 0.597 | 0.507 | 0.509 | 0.583 | 0.662 | 0.64 |
| CUACAUCAAACAAACGGUCUG [Fam1A.1 aminoacylation ribozyme variant] | 1 | 1.01 | 1.09 | 0.771 | 1.07 | 0.901 |
| CUACAUCAAACAAUCGGUCAG [Fam1A.1 aminoacylation ribozyme variant] | 0.759 | 0.912 | 0.586 | 0.56 | 0.629 | 0.714 |
| CUACAUCAAACAAUCGGUCGG [Fam1A.1 aminoacylation ribozyme variant] | 0.954 | 1.36 | 0.994 | 1.16 | 0.773 | 0.981 |
| CUACAUCAAACAAUCGGUUUG [Fam1A.1 aminoacylation ribozyme variant] | 0.646 | 1.9 | 1.05 | 0.781 | 0.906 | 0.821 |
| CUACAUCAAACGAUCGGUCUG [Fam1A.1 aminoacylation ribozyme variant] | 0.657 | 0.836 | 0.778 | 0.78 | 0.728 | 0.93 |
| CUACCUCAAACAAUCGGUCAG [Fam1A.1 aminoacylation ribozyme variant] | 1.01 | 1.33 | 0.767 | 1.01 | 0.808 | 0.873 |
| CUACCUCAAACAAUCGGUCCG [Fam1A.1 aminoacylation ribozyme variant] | 1.15 | 1.05 | 1.2 | 1.9 | 1.04 | 1.18 |
| CUACCUCAAACAAUCGGUCUC [Fam1A.1 aminoacylation ribozyme variant] | 0.879 | 2.7 | 1.42 | 0.752 | 0.869 | 1.07 |
| CUACCUCAAAGAAUCGGUCUG [Fam1A.1 aminoacylation ribozyme variant] | 1.15 | 1.97 | 1.53 | 0.749 | 1.07 | 1.07 |
| CUACCUCACACAAUCGGUCUG [Fam1A.1 aminoacylation ribozyme variant] | 0.672 | 1.81 | 0.744 | 0.988 | 0.861 | 1.06 |
| CUACGACAAACAAUCGGUCUG [Fam1A.1 aminoacylation ribozyme variant] | 0.713 | 1.69 | 0.855 | 0.655 | 0.748 | 0.654 |
| CUACGUCAAACAAUCGAUCUG [Fam1A.1 aminoacylation ribozyme variant] | 0.903 | 0.827 | 1.06 | 0.617 | 0.801 | 0.794 |
| CUACGUCAAACAAUCGGGCUG [Fam1A.1 aminoacylation ribozyme variant] | 2.42 | 0.86 | 2.32 | 2.05 | 1.9 | 2.33 |
| CUACGUCAAACAAUCGGUAUG [Fam1A.1 aminoacylation ribozyme variant] | 1.39 | 1.02 | 1.53 | 1.11 | 1.12 | 1.12 |
| CUACGUCAAACACUCGGUCUG [Fam1A.1 aminoacylation ribozyme variant] | 1.6 | 10.9 | 2.65 | 1.83 | 1.85 | 2.18 |
| CUACGUCUAACAAUCGGUCUG [Fam1A.1 aminoacylation ribozyme variant] | 0.918 | 1.21 | 0.703 | 0.941 | 0.89 | 0.856 |
| CUACGUUAAACAAUCGGUCUG [Fam1A.1 aminoacylation ribozyme variant] | 1.16 | 0.927 | 1.05 | 1.17 | 1.19 | 1.19 |
| CUACUACAAAAAAUCGGUCUG [Fam1A.1 aminoacylation ribozyme variant] | 0.857 | 0.76 | 0.762 | 0.678 | 0.774 | 0.765 |
| CUACUACAAACAAUCGAUCUG [Fam1A.1 aminoacylation ribozyme variant] | 0.52 | 0.759 | 0.665 | 0.593 | 0.808 | 0.719 |
| CUACUACAAACAAUCGGUAUG [Fam1A.1 aminoacylation ribozyme variant] | 0.597 | 0.567 | 0.505 | 0.454 | 0.617 | 0.584 |
